Biological target: tetrameric Y-complex fragment Nup120-Nup145C-Sec13-Nup85 (NPC-II) (Myceliophthora thermophila)
Assay: mass photometry; mixture of NPC-I and NPC-II (NPC-III) diluted 10-fold from 482 nM immediately before measurement; 10 mM HEPES pH 7.5, 150 mM NaCl, 1 mM DTT, 0.1 mM EDTA; no cross-linker

tetrameric Y-complex fragment Nup120-Nup145C-Sec13-Nup85 (NPC-II) (Myceliophthora thermophila), sequence (main, as listed by the source, chain 1 of 3): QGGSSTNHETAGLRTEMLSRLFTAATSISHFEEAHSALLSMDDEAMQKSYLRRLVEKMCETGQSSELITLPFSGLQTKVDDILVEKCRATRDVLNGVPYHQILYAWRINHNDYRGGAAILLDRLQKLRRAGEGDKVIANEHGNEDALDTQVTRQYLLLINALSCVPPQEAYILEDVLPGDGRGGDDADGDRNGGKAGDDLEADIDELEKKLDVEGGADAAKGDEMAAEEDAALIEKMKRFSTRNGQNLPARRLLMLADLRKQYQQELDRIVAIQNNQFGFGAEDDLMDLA
tetrameric Y-complex fragment Nup120-Nup145C-Sec13-Nup85 (NPC-II) (Myceliophthora thermophila), sequence (partner, as listed by the source, chain 2 of 3): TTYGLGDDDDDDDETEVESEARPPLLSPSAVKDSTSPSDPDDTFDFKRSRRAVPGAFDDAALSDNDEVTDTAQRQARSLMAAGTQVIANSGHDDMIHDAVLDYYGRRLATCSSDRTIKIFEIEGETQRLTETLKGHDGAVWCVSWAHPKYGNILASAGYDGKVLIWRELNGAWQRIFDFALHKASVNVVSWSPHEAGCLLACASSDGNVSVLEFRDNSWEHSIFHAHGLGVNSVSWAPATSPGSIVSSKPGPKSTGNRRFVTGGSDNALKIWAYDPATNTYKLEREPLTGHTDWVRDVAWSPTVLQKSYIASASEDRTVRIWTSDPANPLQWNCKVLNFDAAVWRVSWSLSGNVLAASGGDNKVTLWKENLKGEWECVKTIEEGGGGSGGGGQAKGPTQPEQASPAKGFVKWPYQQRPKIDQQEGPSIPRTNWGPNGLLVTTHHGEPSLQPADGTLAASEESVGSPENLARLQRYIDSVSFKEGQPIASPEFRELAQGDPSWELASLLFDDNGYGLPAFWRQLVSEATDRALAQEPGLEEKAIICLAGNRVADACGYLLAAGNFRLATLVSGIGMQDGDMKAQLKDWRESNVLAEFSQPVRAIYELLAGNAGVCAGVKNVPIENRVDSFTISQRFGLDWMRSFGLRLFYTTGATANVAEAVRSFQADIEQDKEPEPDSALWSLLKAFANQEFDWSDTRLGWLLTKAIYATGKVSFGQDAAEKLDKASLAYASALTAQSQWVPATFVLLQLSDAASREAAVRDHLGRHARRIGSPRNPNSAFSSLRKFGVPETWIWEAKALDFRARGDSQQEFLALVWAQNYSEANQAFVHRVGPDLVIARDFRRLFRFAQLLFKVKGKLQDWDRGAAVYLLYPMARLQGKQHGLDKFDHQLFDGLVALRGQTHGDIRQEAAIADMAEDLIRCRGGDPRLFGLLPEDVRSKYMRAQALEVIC
tetrameric Y-complex fragment Nup120-Nup145C-Sec13-Nup85 (NPC-II) (Myceliophthora thermophila), sequence (partner, as listed by the source, chain 3 of 3): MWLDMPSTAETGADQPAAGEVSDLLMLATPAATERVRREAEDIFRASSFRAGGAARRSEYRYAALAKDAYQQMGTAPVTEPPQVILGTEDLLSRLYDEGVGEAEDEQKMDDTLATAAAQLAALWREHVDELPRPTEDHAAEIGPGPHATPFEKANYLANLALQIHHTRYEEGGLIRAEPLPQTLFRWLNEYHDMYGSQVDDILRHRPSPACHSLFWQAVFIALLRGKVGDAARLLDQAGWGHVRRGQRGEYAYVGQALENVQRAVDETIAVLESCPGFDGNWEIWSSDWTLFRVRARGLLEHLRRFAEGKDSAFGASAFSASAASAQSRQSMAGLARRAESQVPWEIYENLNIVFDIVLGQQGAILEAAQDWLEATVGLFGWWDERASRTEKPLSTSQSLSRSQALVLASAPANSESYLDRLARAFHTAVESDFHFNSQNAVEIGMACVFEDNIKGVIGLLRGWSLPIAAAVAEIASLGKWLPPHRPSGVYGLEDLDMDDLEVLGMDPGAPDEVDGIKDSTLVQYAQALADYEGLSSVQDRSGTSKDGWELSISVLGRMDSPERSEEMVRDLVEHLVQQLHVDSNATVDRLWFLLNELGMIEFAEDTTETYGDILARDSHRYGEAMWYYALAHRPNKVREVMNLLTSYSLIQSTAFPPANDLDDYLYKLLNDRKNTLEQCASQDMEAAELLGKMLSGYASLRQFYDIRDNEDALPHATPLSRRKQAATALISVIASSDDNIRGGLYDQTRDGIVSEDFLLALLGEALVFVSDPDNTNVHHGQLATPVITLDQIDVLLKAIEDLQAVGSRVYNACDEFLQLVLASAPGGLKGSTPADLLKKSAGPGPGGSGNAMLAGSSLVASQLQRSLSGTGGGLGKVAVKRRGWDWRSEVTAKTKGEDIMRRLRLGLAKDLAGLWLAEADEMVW

stoichiometry N: 1
Substance: tetrameric Nup82-Nup145N-Nup159-Nsp1 complex (NPC-I)
